The values below come from patent US20140314790.

The series deals with T1, N3-2A, Modulator of β-cleavage of APP (MoBA).
T1 chain: DAVYYCGLKY

B1: purified β-secretase (protein)
chain: ETDEEPEEPGRRGSFVEMVDNLRGKSGQGYYVEMTVGSPPQTLNILVDTGSSNFAVGAAPHPFLHRYYQRQLSSTYRDLRKGVYVPYTQGKWEGELGTDLVSIPHGPNVTVRANIAAITESDKFFINGSNWEGILGLAYAEIARPDDSLEPFFDSLVKQTHVPNLFSLQLCGAGFPLNQSEVLASVGGSMIIGGIDHSLYTGSLWYTPIRREWYYEVIIVRVEINGQDLKMDCKEYNYDKSIVDSGTTNLRLPKKVFEAAVKSIKAASSTEKFPDGFWLGEQLVCWQAGTTPWNIFPVISLYLMGEVTNQSFRITILPQQYLRPVEDVATSQDDCYKFAISQSSTGTVMGAVIMEGFYVVFDRARKRIGFAVSACHVHDEFRTAAVEGPFVTLDMEDCGYNIPQTDESTLMT
With B1, the “activity of purified β-secretase on a fluorescent substrate (FRET assay)” value is reported as “N3-2A did not inhibit the activity of purified β-secretase”.
